According to patent publication US20250388907A1, “MULTISPECIFIC POLYNUCLEOTIDE NANOSTRUCTURES FOR CANCER DETECTION AND THERAPY” (Atom Bioworks, Inc., priority 2021, published 2025):
Where “and” joins values, the source holds several entries; their conditions need not be identical. Equal entries are not always repeated. Where two headings read alike, the source gives them in different places.

B1: ABWT050902 (ssDNA)
DNA: ATCCAGAGTGACGCAGCACCGCCCATGTCGAATAGGTGCCACGTAGGGACTTGGACACGGTGGCTTAGT
B2: ABWT050902: CD117-binding aptamer, SEQ ID NO: 1; FAM-labeled or daunorubicin-loaded in tests (nucleic acid)
chain: B1 DNA
modifications: FAM label or daunorubicin loading in tests, chemistry not fully specified
B3: ZW25: CD123-binding aptamer, SEQ ID NO: 4 (nucleic acid)
chain: TGCGTGTGTAGTGTGTCTGGGCTACATCGATGAGCTGCCTAGGGTCCCTCTTAGGGATTTGGGCGGG
modifications: listed as DNA, chemistry not fully specified
B4: CY30: CD123-binding aptamer, SEQ ID NO: 5 (nucleic acid)
chain: TGCGTGTGTACTGTGTCTGGTCCCGTAGCTACTAGCGAACTCCCTGCCTCTTAGGGATTTGGGCGG
modifications: listed as DNA, chemistry not fully specified
B5: Oligo-Protein G conjugates: docking oligo conjugated via sulfo-SMCC linker to 6xHis-tagged recombinant Protein G (conjugate)
chain: TYKLILNGKTLKGETTTEAVDAATAEKVFKQYANDNGVDGEWTYDDATKTFTVTEKPEVIDASELTPAVTTYKLVINGKTLKGETTTEAVDAATAEKVFKQYANDNGVDGEWTYDDATKTFTVTEKPEVIDASELTPAVTTYKLVINGKTLKGETTTKAVDAETAEKAFKQYANDNGVDGVWTYDDATKTFTVTE
B6: 3x3v2-Conjugate: Oligo-Protein G conjugates immobilized on 3x3v2 nets (conjugate)
chain: B5 chain
B7: #1: CD117-binding aptamer, SEQ ID NO: 3 (nucleic acid)
chain: GAGGCATACCAGCTTATTCAAGGGGCCGGGGCAAGGGGGGGGTACCGTGGTAGGACATAGTAAGTGCAATCTGCGAA
modifications: listed as DNA, chemistry not fully specified
B8: ABWT050904: CD117-binding aptamer, SEQ ID NO: 2 (nucleic acid)
chain: ATCCAGAGTGACGCAGCACGAGCCTTGTGTCGTTCGGAGTGCTGGTCCACGACTACTATTGGACACGGTGGCTTAGT
modifications: listed as DNA, chemistry not fully specified

Experiments:
MM1S cells = experiment: MTT cell killing assay; assay type: cell-based, Human; conditions: Example 3: 24 hours treatment, MTT after 48 hours; daunorubicin 40 μM; daunorubicin-loaded aptamers 4 μM and 2 μM
Description: (§1) Daunorubicin-loaded aptamers were then diluted across various concentrations: 4 μM, 2 μM, 0.2 μM, and 0.02 μM. Untreated cells were used as a negative killing control. 10% DMSO was used as a positive killing control. 40 μM daunorubicin was also used as a positive killing control but one that matched the current National Comprehensive Cancer Network (NCCN) guidelines for AML daunorubicin chemotherapy dosing. Cells were incubated with their respective treatments for 24 hours before they were washed with cell medium. After 48 hours, the viability of all cells were assessed using MTT assays. All conditions were performed in triplicate for standard error analysis. MM1S cells were used as negative control in the assays having aptamers at 4 μM and 2 μM, respectively.
Daunorubicin-loaded aptamers were prepared as described in Example 3. The killing activity of daunorubicin-loaded aptamers alone and daunorubicin-loaded aptamers on various networks of polynucleotides, i.e., 3x3v1 nets and TRD1 tiles on KASUMI-1 cells (an AML cell line) were assessed using the procedures as described in Example 3. […]

KASUMI-1 cells = experiment: MTT cell killing assay; assay type: cell-based, Human; conditions: for ΔFold over Free (3x3v1): IC50 on 3x3v1 net versus free aptamer; for ΔFold over Free (TRD1): IC50 on TRD1 versus free aptamer
Description: as §1
Daunorubicin-loaded aptamers were prepared as described in Example 3. The killing activity of daunorubicin-loaded aptamers alone and daunorubicin-loaded aptamers on various networks of polynucleotides, i.e., 3x3v1 nets and TRD1 tiles on KASUMI-1 cells (an AML cell line) were assessed using the procedures as described in Example 3. Additional negative killing controls were added to control for any inherent nonspecific killing effects by the networks of polynucleotides or aptamers: “3x3v1 net (Empty)” is 3x3v1 net without aptamers (therefore, no daunorubicin), “TRD1 (Empty)” is TRD1 without aptamers (therefore, no daunorubicin), “Scramble Aptamer 1”, “Scramble Aptamer 2”, and “Scramble Aptamer 3” were three oligos with lengths and A:T:C:G ratios similar to the tested aptamers but whose nucleotide sequences were randomized but also loaded with daunorubicin. 0.4 μM Daunorubicin were intercalated into aptamers across all conditions.
KASUMI-1 cells were cultured and incubated with all five aptamers (each loaded with daunorubicin) across six concentrations: 10 nM, 1 nM, […] and 100 fM. 10% DMSO, 40 μM daunorubicin, 4 μM daunorubicin, and 0.4 μM daunorubicin were used as positive killing controls. 3x3v1 net (Empty), TRD1 (Empty), Scramble Aptamer 1, Scramble Aptamer 2, and Scramble Aptamer 3 were negative killing controls. Incubation and washing procedures were as described in Experiment 3. After 48 hours, the samples were measured for viability via MTT assay. Data points were plotted and unpaired student's t—tests were performed to determine significance. For IC50 calculations, the concentrations were transformed to the logarithmic equivalent followed by normalization of the relative cell viability on a scale of 0-100. The normalized viability was subjected to nonlinear regression against the logarithmically converted inhibitor concentrations in the three parameters variable slope mode to determine the IC50. […]
ABWT050902 aptamers with D1 dock sites were loaded with daunorubicin as described previously. Aptamers were then immobilized on PTR45 and PTR86 (please refer to FIG. 17B and FIG. 17C). PTR45 was loaded with 20 ABWT050902 D1 aptamers, whereas PTR86 were loaded with 40. KASUMI-1 cells were grown, incubated with analytes, and measured via MTT cell killing assays as described previously.

CD117 (c-KIT) = CD117 (c-KIT) (UniProt P10721 P10721:26-524); experiment: SPR; aptamer alone, CD117 immobilized on CM5 chip; conditions: tags: immobilized on Biacore CM5 chip; label: 5' FAM (flow cytometry)
CD117 (c-KIT), sequence (P10721 26-524, one chain of several): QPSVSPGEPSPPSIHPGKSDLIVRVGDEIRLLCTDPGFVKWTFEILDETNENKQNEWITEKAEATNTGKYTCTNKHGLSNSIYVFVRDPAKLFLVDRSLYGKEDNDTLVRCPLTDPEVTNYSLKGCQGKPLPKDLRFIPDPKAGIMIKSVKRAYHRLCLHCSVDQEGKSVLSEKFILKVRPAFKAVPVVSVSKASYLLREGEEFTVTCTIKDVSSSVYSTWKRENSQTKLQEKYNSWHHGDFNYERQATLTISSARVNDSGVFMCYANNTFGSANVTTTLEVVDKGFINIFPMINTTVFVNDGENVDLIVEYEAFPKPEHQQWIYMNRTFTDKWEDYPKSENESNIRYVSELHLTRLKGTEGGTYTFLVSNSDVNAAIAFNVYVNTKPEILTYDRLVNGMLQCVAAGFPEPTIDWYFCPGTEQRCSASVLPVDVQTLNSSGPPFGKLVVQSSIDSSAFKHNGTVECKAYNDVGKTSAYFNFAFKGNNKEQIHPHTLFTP
Description: Next, surface plasmon resonance (SPR) assays were performed to assess the ability of networks of polynucleotides to improve the binding affinity of an aptamer. Aptamer ABWT050902 (a CD 117 binder) was folded as previously described. Aptamers alone, and aptamers on a TRD1 (as illustrated in FIG. 2) were prepared at varying concentrations and flowed over a CM5 sensor chip on a Biacore SPR immobilized with CD117. The inter-binder distances of the 96 uniquely addressable docking loci for CD 117 binders was 5 nm. Concentrations were normalized to total aptamer amount.

[1] = Kinetic fluorescent assay of daunorubicin release over time; conditions: free daunorubicin in supernatant buffer
From the text: Despite both “ABWT050902 Alone, With Daunorubicin” and “ABWT050902 on TRD1” conditions beginning the assay at the same time, the former began the assay with higher fluorescence of 400.0+ RFUs compared to the latter. This is because more free daunorubicin was in the supernatant buffer of “ABWT050902 Alone, with Daunorubicin” compared to “ABWT050902 on TRD1”.

CD117 = CD117 (Homo sapiens, UniProt P10721); experiment: SPR binding assay, Biacore CM5 chip; conditions: CD117 immobilized on CM5 chip, concentrations normalized to total aptamer amount
CD117, sequence (P10721 26-976): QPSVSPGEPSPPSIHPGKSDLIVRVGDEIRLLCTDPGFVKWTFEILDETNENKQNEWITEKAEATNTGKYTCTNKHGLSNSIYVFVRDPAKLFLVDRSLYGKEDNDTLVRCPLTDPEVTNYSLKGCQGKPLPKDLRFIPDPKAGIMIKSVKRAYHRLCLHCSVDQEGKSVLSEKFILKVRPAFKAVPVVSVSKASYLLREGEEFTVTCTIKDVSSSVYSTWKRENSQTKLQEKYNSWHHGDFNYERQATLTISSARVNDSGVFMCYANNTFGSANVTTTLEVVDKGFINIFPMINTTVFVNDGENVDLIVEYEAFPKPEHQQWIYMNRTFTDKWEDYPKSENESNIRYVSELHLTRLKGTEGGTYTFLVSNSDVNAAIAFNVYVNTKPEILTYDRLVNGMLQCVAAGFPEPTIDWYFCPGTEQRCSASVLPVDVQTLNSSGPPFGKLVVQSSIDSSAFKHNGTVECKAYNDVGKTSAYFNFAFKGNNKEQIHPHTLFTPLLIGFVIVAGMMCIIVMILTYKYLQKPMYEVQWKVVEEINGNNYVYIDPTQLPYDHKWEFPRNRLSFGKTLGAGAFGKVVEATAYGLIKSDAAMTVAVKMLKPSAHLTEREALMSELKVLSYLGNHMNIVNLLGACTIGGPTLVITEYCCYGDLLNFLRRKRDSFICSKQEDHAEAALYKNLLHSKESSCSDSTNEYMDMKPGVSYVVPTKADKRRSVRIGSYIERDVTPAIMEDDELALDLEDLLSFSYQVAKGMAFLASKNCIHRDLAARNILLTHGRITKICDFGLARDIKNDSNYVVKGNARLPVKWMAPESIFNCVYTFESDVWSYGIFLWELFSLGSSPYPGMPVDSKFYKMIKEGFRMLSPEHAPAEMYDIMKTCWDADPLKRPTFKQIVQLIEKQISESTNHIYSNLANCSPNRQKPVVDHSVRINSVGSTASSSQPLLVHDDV

mouse IgG = experiment: SPR binding assay of Protein G activity, Biacore CM5 chip; conditions: mouse IgG immobilized on CM5 chip, equivalent conjugate amount
Description: We used a sulfo-SMCC linker to conjugate an oligo (complementary to 3x3v1 docking sites) bearing a 5′ amine to the N terminal cysteine sulfhydryl R group on 6xHis-tagged recombinant Protein G (the oligo also bore a 3′ biotin for later purification). This was performed at room temperature in 1x phosphate buffered saline (PBS), pH 7.4. Oligo functionalization with sulfo-SMCC was performed first (as is typical), followed by two Zeba column (7 kDa molecular weight cutoff) cleanups to remove the excess sulfo-SMCC. Functionalized oligos were then placed in molar excess to Cys-Protein G. Purification proceeded via usage of monomeric avidin resin (to remove any unconjugated Cys-Protein G) followed by Ni^2+-NTA resin (to remove any unconjugated oligos). Oligo-Protein G conjugates were then docked to 3x3v1 (27 docking sites) and 3x3v2 (9 docking sites) nets and assayed for activity on SPR binding assays.

[2] = KASUMI-1, MTT after 48 hours, daunorubicin or daunorubicin-loaded aptamer alone, read-out: IC50 (pM) Free
[3] = KASUMI-1, daunorubicin-loaded aptamer immobilized on 3x3v1 net, read-out: IC50 (pM) 3x3v1
[4] = KASUMI-1, daunorubicin-loaded aptamer immobilized on 3x3v1 net, read-out: IC90 (pM) 3x3v1
[5] = KASUMI-1, daunorubicin-loaded aptamer immobilized on TRD1, read-out: IC50 (pM) TRD1
[6] = KASUMI-1, daunorubicin-loaded aptamer immobilized on TRD1, read-out: IC90 (pM) TRD1

Molecule | ΔFold over Free (3x3v1) (KASUMI-1 cells) [x] | IC50 (KASUMI-1 cells; [2]) [pM] | IC50 (KASUMI-1 cells; [3]) [pM] | IC90 (KASUMI-1 cells; [4]) [pM] | ΔFold over Free (TRD1) (KASUMI-1 cells) [x] | IC50 (KASUMI-1 cells; [5]) [pM] | IC90 (KASUMI-1 cells; [6]) [pM] | other results
COc1cccc2c1C(=O)c1c(O)c3c(c(O)c1C2=O)C[C@@](O)(C(C)=O)C[C@@H]3O[C@H]1C[C@H](N)[C@H](O)[C@H](C)O1 [Daunorubicin, daunorubicin, reference compound] | – | – | – | – | – | – | – | killing of MM1S cells (MM1S cells): approximately 50%; killing of KASUMI-1 cells (KASUMI-1 cells; Example 3: 24 hours treatment, MTT after 48 hours, daunorubicin 40 μM, daunorubicin-loaded aptamers 4-0.02 μM): approximately 20%; IC50 (KASUMI-1 cells; Homo sapiens, Kasumi 1, 48 h, read-out: IC50 (pM) Free): 58400 pM
B1 | – | – | – | – | – | – | – | Kd (CD117 (c-KIT)): 1220 nM
B2 | 2.4 | 529 | 218 | 61800 | – | – | – | fluorescence at the beginning of the daunorubicin release assay [1]: ≥ 400.0 RFUs; Kd (CD117): ~1220 nM and 1220 nM
B3 | 8.0 | 3540 | 445 | 128000 | 34.7 | 102 | 7830 | –
B4 | 5.5 | 5070 | 931 | 8700 | 38.1 | 133 | 93600 | –
B5 | – | – | – | – | – | – | – | relative response, binding to mouse IgG (mouse IgG): ~145 RUs
B6 | – | – | – | – | – | – | – | relative response, binding to mouse IgG (mouse IgG): ~170 RUs
B7 | 3.6 | 531 | 147 | 208000 | 5.6 | 95 | 165000 | IC90 (KASUMI-1 cells; KASUMI-1, daunorubicin-loaded aptamer alone, read-out: IC90 (pM) Free): 108000 pM
B8 | 4.2 | 976 | 233 | 17600 | – | – | – | –
